Paper PMC8902620, “Oligomerization of DNA replication regulatory protein RADX is essential to maintain replication fork stability” (The Journal of Biological Chemistry, 2022)
Positions count from the first letter of the chain named. Values belong to the binder of their own block, whether it stands above or below them.

Key:
[1] = molecular target: T1, full-length RADX, wild type, tagged with mCherry-FLAG or with GFP-HA (human, UniProt Q6NSI4 1-855); assay: co-IP; purified mCherry-FLAG proteins mixed with purified GFP-HA-RADX and captured on GFP-trap magnetic agarose beads, 1 h at 4 °C; 50 mM Tris pH 7.5, 250 mM NaCl, 10% glycerol, 0.05% NP-40; immunoblot; conditions: both partners purified
T1 construct: RADX (cxorf57), human, full length; Two differently tagged copies of the same protein, written as one molecule; The GFP-HA copy is the one captured on GFP beads in the tests with purified proteins; The mCherry-FLAG copy is the one fished out there, and is the bait of the FLAG co-IP from lysate; also called mCherry-FLAG-RADX; m-Cherry-FLAG-RADX; source: HEK293T, transfected, in lysate; HEK293T, …

[2] = molecular target: the molecule itself; assay: SEC; purified MBP-RADX on Superdex 200 Increase 10/300 GL; peak fractions pooled and reapplied; 50 mM Tris pH 7.5, 300 mM NaCl, 10% glycerol, 1 mM DTT; size by molecular weight standards

binding result [1]: binds
B3: mCherry-FLAG-RADX Y849A (natural protein, human, UniProt Q6NSI4 1-855, looked up)
chain: MSGESGQPEAGPSHAGLDWPNPERNRAGVPGGVIRRAGSQGPRSWIQKVLEQIMDSPRQCVTPSEVVPVTVLAVQRYLLEDEPRDTVPKPPLYCYDVTISDGVYQEKCYLDPSLNSLVYQNILKVGIQMRISRVSCLYNEKRIGQGILCIDNVHCGETSDSISLETPFRNRAHQEKPERPLRGGKSHYLALWNNEDPYGDIWLTDKQPEEHNFSDTKIISLSHLEMTWTNRRNFPALLVRILHKSKLRYYGKPDKKMIEPYQTFLEVADSSGTVSVIMWNALCPEWYKSLRVGLVLLLQDYSVKKSYPFRIQPVPVDPQIKLISTMEICLNLRDPPTNIIIIPEKQVKPEWRLPKLNHRFTTRSELDDMPENCICDVIGLLVFVGRVQRSKKKENREDFWSYRWIHIADGTSEQPFIVELFSTSQPEIFENIYPMAYFVCTQLKVVRNDNQVPKLLYLTTTNESGVFITGHRGQPYTYDAKVKNFIQWIRTKSDSGEQKNMVIGGYYPYPPVPETFSKYSSSIKVESLLTAISEVRKEIEDLQYREQKRIAIQGIITAIKYIPHSSATESASASETLRNANRPSTSQAARVEIQERNGKRHQDDEPVNSQYFQTTSTNLSLSNKIRILQGPHANPVAVPQPGASVQTKGIKPGMPSIFNRRANINANLQGKARKTISDRWESQLWREKKFGLIDHLHYSRVYPESIPRKFMFEHRKFLSDQYNSQPAKYVPPEGRPPKLDDFKSARSLGHFEVTILGLNHEIAIDVAFLPMYCPEDIRTSQIDTLLTSMNYSCAYPQDTTGNDRLPGPRAVAGDIIKAATELDRVHIVGILDICNLGNNKVEVYLHKIASPENTS
notes: RADX, human, full length with one point mutation; also called pTM158; source: HEK293T, purified (anti-FLAG M2 beads, 3x FLAG peptide, Superdex 200)

binding result [1]: binds
B5: mCherry-FLAG-RADX C-terminal fragment (675–855) (domain or fragment, human, UniProt Q6NSI4 675-855, looked up)
chain: TISDRWESQLWREKKFGLIDHLHYSRVYPESIPRKFMFEHRKFLSDQYNSQPAKYVPPEGRPPKLDDFKSARSLGHFEVTILGLNHEIAIDVAFLPMYCPEDIRTSQIDTLLTSMNYSCAYPQDTTGNDRLPGPRAVAGDIIKAATELDRVHIVGILDICNLGNNKVEVYLHKIYSPENTS
notes: also called pTM67; source: HEK293T, purified (anti-FLAG M2 beads, 3x FLAG peptide, Superdex 200)

Continued, binder first:

B1: mCherry-FLAG-RADX domain 5 (744–855) (domain or fragment, human, UniProt Q6NSI4 744-855, looked up)
chain: SARSLGHFEVTILGLNHEIAIDVAFLPMYCPEDIRTSQIDTLLTSMNYSCAYPQDTTGNDRLPGPRAVAGDIIKAATELDRVHIVGILDICNLGNNKVEVYLHKIYSPENTS
notes: also called pTM44; source: HEK293T, purified (anti-FLAG M2 beads, 3x FLAG peptide, Superdex 200)
binding result [1]: binds

B2: MBP-RADX (maltose-binding protein-tagged RADX) (natural protein, human, UniProt Q6NSI4 1-855, looked up)
chain: B3 chain with A849Y
notes: RADX (cxorf57), human; also called MBP-tagged RADX; cxorf57; source: insect cells, purified
stoichiometry N [2]: ~2

B4: mCherry-FLAG-RADX N-terminal fragment (2–675) (domain or fragment, human, UniProt Q6NSI4 2-675, looked up)
chain: SGESGQPEAGPSHAGLDWPNPERNRAGVPGGVIRRAGSQGPRSWIQKVLEQIMDSPRQCVTPSEVVPVTVLAVQRYLLEDEPRDTVPKPPLYCYDVTISDGVYQEKCYLDPSLNSLVYQNILKVGIQMRISRVSCLYNEKRIGQGILCIDNVHCGETSDSISLETPFRNRAHQEKPERPLRGGKSHYLALWNNEDPYGDIWLTDKQPEEHNFSDTKIISLSHLEMTWTNRRNFPALLVRILHKSKLRYYGKPDKKMIEPYQTFLEVADSSGTVSVIMWNALCPEWYKSLRVGLVLLLQDYSVKKSYPFRIQPVPVDPQIKLISTMEICLNLRDPPTNIIIIPEKQVKPEWRLPKLNHRFTTRSELDDMPENCICDVIGLLVFVGRVQRSKKKENREDFWSYRWIHIADGTSEQPFIVELFSTSQPEIFENIYPMAYFVCTQLKVVRNDNQVPKLLYLTTTNESGVFITGHRGQPYTYDAKVKNFIQWIRTKSDSGEQKNMVIGGYYPYPPVPETFSKYSSSIKVESLLTAISEVRKEIEDLQYREQKRIAIQGIITAIKYIPHSSATESASASETLRNANRPSTSQAARVEIQERNGKRHQDDEPVNSQYFQTTSTNLSLSNKIRILQGPHANPVAVPQPGASVQTKGIKPGMPSIFNRRANINANLQGKARKT
notes: also called pTM59; source: HEK293T, purified (anti-FLAG M2 beads, 3x FLAG peptide, Superdex 200)
binding result [1]: binds
